We go through 1 molecule from doi:10.1101/2023.01.09.523197.

The series concerns the target GlnR147-Alexa647;RNAP holoenzyme (Mycobacterium …, UniProt O53830;P9WGZ1;P9WGY9;P9WGY7;P9WGY5;P9WGI1 1-255;1-347;1-1178;1-1316;1-110;1-528, C61S;L148C|). Put plainly: […], SEC in 20 mM Tris-HCl pH 8.0, 75 mM NaCl, 5 mM MgCl2.

B1: amtB+2Cy3 (dsDNA)
DNA 1: GCCCCGGCCGTTCACCCACGCGTAACACGCACCGTGCCTTCGTCACGGCGGCGAAACAACGAGGGGCTTCCACCGAAACCGCGCTGCGTCAATGTCGTGGCGCATAACCGGCCCACCCCT
DNA 2: AGGGGTGGGCCGGTTATGCGCCACGACATTGACGCAGCGCGGTTTCGGTGGAAGCCCCTCGTTGTTTCGCCGCCGTGACGAAGGCACGGTGCGTGTTACGCGTGGGTGAACGGCCGGGGC
For B1, the binding result is “binds”.
